Test results published in article PMC6269467.

Key:
[1] = target: αE-catenin actin-binding domain, wild type (αEcat-ABD-WT) (mouse) (UniProt P26231); experiment: SEC-MALS; elution profiles at 3 mg/ml to 30 mg/ml; MALS of the dimer peak at 30 mg/ml; dimer to monomers; Superdex-200 Increase 10/300 GL; 20 mM Tris-HCl pH 7.0, 100 mM NaCl
[2] = target: αN-catenin actin-binding domain with the helix-1 mutation (αNcat-ABD-H1) (mouse) (UniProt Q61301); experiment: crystal structure; αNcat-ABD-H1 crystals in forms A (2.2 Å) and B (2.8 Å), grown at 277 K by vapor diffusion; molecular replacement with PDB 4K1O

Substance: αE-catenin actin-binding domain, wild type (αEcat-ABD-WT) (from UniProt P26231 652-906) (domain or fragment)
- stoichiometry N [1]: 2

Substance: αN-catenin actin-binding domain with the helix-1 mutation (αNcat-ABD-H1) (from UniProt Q61301-2 651-905) (domain or fragment)
- stoichiometry N [2]: 2
